Assay results: the supplement of paper PMC7125110
± gives the standard error. For part of these data: Variants at the floor of the assay were thinned out.

B1: glmS ribozyme (parent)
chain: AUAAAAGCGCCAGAACUACAGAAAUGUAGUUGACGAGGAGGAGGUUUAUCGAAUUUUCGGCGGAUGCCUCCAAA

What was measured:
Conditions in all cases: with glucosamine-6-phosphate
glucosamine-6-phosphate [1] = variants of: B1; test: kcat; higher = faster cleavage; RNA array
Procedure, shortened: (§1)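 kcat and KM were obtained from weighted Michaelis–Menten fits across concentrations of kobs values. Those came from one- or two-exponential decay fits to per-tile medians normalised to baseline and to non-cleaving reference variants. The variants were barcoded ribozymes transcribed in situ by E. coli RNA polymerase on sequenced MiSeq chips and tracked through a hybridised Cy3 probe at 37 °C, with 40 μM to 10 mM glucosamine-6-phosphate in HEPES/KCl/Mg(OAc)2 buffer flowed in.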

glucosamine-6-phosphate [2] = variants of: B1; test: KM; higher = weaker cofactor use; RNA array
Procedure, shortened: as §1

glucosamine-6-phosphate [3] = variants of: B1; test: self-cleavage kobs at 40 uM GlcN6P; higher = faster cleavage; RNA array
Procedure, shortened: as §1

glucosamine-6-phosphate [4] = variants of: B1; test: self-cleavage kobs at 2500 uM GlcN6P; higher = faster cleavage; RNA array
Procedure, shortened: as §1

glucosamine-6-phosphate [5] = variants of: B1; test: self-cleavage kobs at 640 uM GlcN6P; higher = faster cleavage; RNA array
Procedure, shortened: as §1

glucosamine-6-phosphate [6] = variants of: B1; test: self-cleavage kobs at 10000 uM GlcN6P; higher = faster cleavage; RNA array
Procedure, shortened: as §1

glucosamine-6-phosphate [7] = variants of: B1; test: self-cleavage kobs at 160 uM GlcN6P; higher = faster cleavage; RNA array
Procedure, shortened: as §1

| Variant | kcat (glucosamine-6-phosphate [1]) [s⁻¹] | KM (glucosamine-6-phosphate [2]) [mM] | self-cleavage kobs at 40 uM GlcN6P (glucosamine-6-phosphate [3]) [s⁻¹] | self-cleavage kobs at 2500 uM GlcN6P (glucosamine-6-phosphate [4]) [s⁻¹] | self-cleavage kobs at 640 uM GlcN6P (glucosamine-6-phosphate [5]) [s⁻¹] | self-cleavage kobs at 10000 uM GlcN6P (glucosamine-6-phosphate [6]) [s⁻¹] | self-cleavage kobs at 160 uM GlcN6P (glucosamine-6-phosphate [7]) [s⁻¹] |
| --- | --- | --- | --- | --- | --- | --- | --- |
| A12G G66U C67U | 8.1e-05 ± 2.4e-06 | 1.61 ± 0.11 | < 1e-05 | 4.93e-05 ± 2.1e-05 | – | – | – |
| A12C G62U C70G | 2.02e-05 ± 4.5e-06 | – | – | – | – | – | – |
| C11U U46C | 7.67e-05 ± 2e-05 | – | < 1e-05 | 3.71e-05 ± 9.8e-06 | 3.45e-05 ± 1.3e-05 | 6.92e-05 ± 1.1e-05 | – |
| A12C C50A U56A | < 1e-05 | – | – | – | < 1e-05 | – | – |
| A12C C50U | 0.000203 ± 3.3e-05 | 4.75 ± 1.1 | – | 7.01e-05 ± 1.5e-05 | – | – | – |
| A12U G59A | 0.000207 ± 1.4e-05 | 3.14 ± 0.43 | – | 8.97e-05 ± 8.8e-06 | 3.84e-05 ± 8.7e-06 | 0.000159 ± 1.8e-05 | – |
| C11U U54A | 0.00189 ± 0.00049 | 1.15 ± 0.47 | 8.46e-05 ± 1.3e-05 | 0.00164 ± 0.00021 | 0.000876 ± 0.00016 | 0.00149 ± 0.00021 | 0.000164 ± 3.1e-05 |
| C11U C16U C71U | 0.000649 ± 0.00014 | 1.1 ± 0.54 | 4.58e-05 ± 1.8e-05 | 0.000443 ± 0.00011 | 0.000215 ± 4.6e-05 | 0.000614 ± 0.00012 | – |
| A12C C71G | 0.000645 ± 0.00023 | – | 4.39e-05 ± 8.5e-06 | 0.000424 ± 7.3e-05 | 0.000264 ± 3e-05 | 0.00109 ± 0.00015 | 0.000153 ± 2.4e-05 |
| A12C C71U | 0.0215 ± 0.0089 | – | 0.000587 ± 7e-05 | 0.0206 ± 0.0035 | 0.00448 ± 0.00062 | 0.0164 ± 0.0023 | 0.00112 ± 0.00015 |
| C11U G66U | 4.89e-05 ± 2.1e-05 | – | < 1e-05 | 6.45e-05 ± 1e-05 | – | 2.69e-05 ± 1.2e-05 | – |
| A12C G13U | 0.000279 ± 2.1e-05 | 6.2 ± 0.85 | – | 8.18e-05 ± 1e-05 | 2.43e-05 ± 6.8e-06 | 0.000172 ± 1.6e-05 | – |
| A12C C16U | 0.0121 ± 0.005 | – | 0.000543 ± 4.7e-05 | 0.0065 ± 0.0011 | 0.00435 ± 0.00065 | 0.016 ± 0.0022 | 0.001 ± 0.00018 |
| A12C U30C C71U | 0.00195 ± 0.00038 | 3.54 ± 1.2 | 3.06e-05 ± 1.5e-05 | 0.000922 ± 0.00025 | 0.000258 ± 8.1e-05 | 0.00141 ± 0.00029 | – |
| A12U A53C | 0.0145 ± 0.006 | – | 0.000569 ± 7.4e-05 | 0.00439 ± 0.0022 | 0.0051 ± 0.0014 | 0.0183 ± 0.0027 | – |
| A12G G37U | < 1e-05 | – | – | – | – | < 1e-05 | – |

| Variant | kcat (glucosamine-6-phosphate [1]) [s⁻¹] | KM (glucosamine-6-phosphate [2]) [mM] | self-cleavage kobs at 40 uM GlcN6P (glucosamine-6-phosphate [3]) [s⁻¹] | self-cleavage kobs at 2500 uM GlcN6P (glucosamine-6-phosphate [4]) [s⁻¹] | self-cleavage kobs at 640 uM GlcN6P (glucosamine-6-phosphate [5]) [s⁻¹] | self-cleavage kobs at 10000 uM GlcN6P (glucosamine-6-phosphate [6]) [s⁻¹] | self-cleavage kobs at 160 uM GlcN6P (glucosamine-6-phosphate [7]) [s⁻¹] |
| --- | --- | --- | --- | --- | --- | --- | --- |
| A12G U54G | 0.000855 ± 0.00011 | 2.26 ± 0.46 | – | 0.000475 ± 5.8e-05 | 0.000179 ± 2.1e-05 | 0.00064 ± 0.00017 | 6.55e-05 ± 1.5e-05 |
| A12G C50G | 1.17e-05 ± 2.1e-06 | – | – | – | – | – | – |
| C11U U55A U56G | 0.000956 ± 0.00038 | – | 4.23e-05 ± 1.9e-05 | 0.000451 ± 0.00012 | 0.000289 ± 4.5e-05 | 0.00113 ± 0.00024 | – |
| A12G G41U | 0.000763 ± 4.6e-05 | – | – | 0.000147 ± 2.1e-05 | 4.77e-05 ± 1.4e-05 | 0.000377 ± 4.1e-05 | – |
| C11U A15C G51U C70A | 6.95e-05 ± 2.4e-05 | – | 6.91e-05 ± 1.9e-05 | 0.000111 ± 3.3e-05 | – | 5.08e-05 ± 2e-05 | – |
| A12U U45A A53U | 0.125 ± 0.042 | 1.1 ± 0.39 | 0.00437 ± 0.0009 | – | – | – | – |
| A12U A48G | 0.000185 ± 3.6e-05 | – | – | 0.000246 ± 3e-05 | 9.16e-05 ± 1.3e-05 | 0.000156 ± 1.5e-05 | 2.8e-05 ± 1.2e-05 |
| A12U G43C | 1.4e-05 ± 1.4e-06 | 6.95 ± 1.5 | – | – | < 1e-05 | – | < 1e-05 |
| C11U A53C | 0.000605 ± 0.00015 | 3.78 ± 1.3 | – | 0.000307 ± 4.8e-05 | 8.09e-05 ± 1e-05 | 0.000412 ± 6.8e-05 | 3.37e-05 ± 1.3e-05 |
| C11U A53G | 0.00166 ± 9.2e-05 | 1.4 ± 0.12 | 5.07e-05 ± 5.9e-06 | 0.00111 ± 0.00013 | 0.000513 ± 4.2e-05 | 0.00145 ± 0.00012 | 0.000156 ± 2e-05 |
| C11U U65A C71U | 0.000194 ± 1.4e-05 | 3.61 ± 0.47 | – | 8.15e-05 ± 1.6e-05 | 2.73e-05 ± 1.3e-05 | 0.000139 ± 4.3e-05 | – |
| A12U G37A | 0.0147 ± 0.0035 | 4.7 ± 1.5 | 0.000169 ± 2.3e-05 | 0.00456 ± 0.001 | 0.00168 ± 0.00025 | 0.0103 ± 0.0011 | 0.000398 ± 7.4e-05 |
| A12U G37C | 0.000148 ± 1.2e-05 | 4.21 ± 0.79 | – | 5.79e-05 ± 8.6e-06 | – | 0.000104 ± 9.8e-06 | < 1e-05 |
| A12G A39C | 0.000267 ± 1.7e-05 | 2.13 ± 0.3 | – | 0.000144 ± 1.2e-05 | 6.42e-05 ± 1.1e-05 | 0.00022 ± 2.2e-05 | – |
| C11U U45G U54A | 0.000206 ± 5.6e-05 | – | – | 0.000119 ± 2.7e-05 | – | 0.000152 ± 3.4e-05 | – |
| A12C A53C | 0.00399 ± 0.0011 | 2.09 ± 0.92 | 0.000109 ± 1.4e-05 | 0.00223 ± 0.00038 | 0.000662 ± 0.00012 | 0.00352 ± 0.00041 | 0.000285 ± 8.1e-05 |
